The test system of experiment [1] is aromatase mRNA. Kind of experiment: RT-PCR of aromatase mRNA in cultured adipocytes. Format: cell-based, human. The note with it: for expression of aromatase mRNA in human adipocytes: interferon alone, endogenous expression, FIG. 3; for transcription of aromatase mRNA: cytokine alone compared to untreated control. As for the experimental part: (§1) Human subcutaneous cultured adipocytes and preadipocytes, catalog nos. SP-1012, SP-1024, SP-1096, SP-75, or SP-25 were purchased from Zen-Bio, Inc. (Research Triangle Park, N.C.) and cultured according to the manufacturer's instructions.
Adipocyte cultures were treated with IL-1-β, IFN-γ, TNF-α, and combinations of IL-1-β and IFN-γ and TNF-α and IFN-γ. Consequently, total RNA from cultured adipocytes was isolated using conventional methods. The reverse transcriptase polymerase chain reaction (RT-PCR) was performed using aromatase specific primers. The amplified aromatase cDNA fragments produced by RT-PCR were separated on an agarose gel. […] The estradiol production by the cells is shown as pikograms/ml (pg/ml) below the photograph of the gel showing the aromatase mRNA levels.
(§2) The isolated human adipocytes were also treated with different interferon family members: IFN-α, -β, and -γ.

Experiment [2] has as its system human adipocytes. Kind of experiment: Estradiol production by cultured human adipocytes (Active Estradiol EIA kit). Format: cell-based. As to conditions: for estradiol amount: cytokine alone at increasing concentrations. As for the experimental part: as §1
The culture medium of the preadipocytes was supplemented with 0.1 μg/ml IFN-γ and increasing concentrations of either TNF-α or TNF-β as shown in FIG. 1. Estradiol concentrations were measured using the Active™ Estradiol EIA kit according to the manufacturer's instructions (catalog no. DSL-10-4300, Diagnostic Systems Laboratories, Inc., Webster, Tex.).
as §2

As to IFN-α, in experiment [1], the “expression of aromatase mRNA in human adipocytes” value is recorded as “significantly increased”. For the same molecule, the “estradiol production increase upon interferon induction” value in experiment [2] (interferon alone, FIG. 3) was “about 6 fold”.

As for IL-1β: interleukin-1β, the “transcription of aromatase mRNA” value in experiment [1] (FIG. 2) is “induced”.

As for TNF-α, the “transcription of aromatase mRNA” value in experiment [1] (FIG. 2) is “induced”. Further, the estradiol amount result in experiment [2] (FIG. 1) is reported as “significantly increased”.

B1: TBP: soluble TNF binding protein, TNF-R1, as described in U.S. Pat. No. 6,225,300 (protein, UniProt P19438 30-211, looked up)
extracellular domain: LVPHLGDREKRDSVCPQGKYIHPQNNSICCTKCHKGTYLYNDCPGPGQDTDCRECESGSFTASENHLRHCLSCSKCRKEMGQVEISSCTVDRDTVCGCRKNQYRHYWSENLFQCFNCSLCLNGTVHLSCQEKQNTVCTCHAGFFLRENECVSCSNCKKSLECTKLCLPQIENVKGTEDSGTT
modifications: extracellular domain
Regarding B1, in experiment [2] (TNF-α at varying concentrations plus TBP, FIG. 4), the “TNF-α induced estradiol production” value is given as “completely blocked”. Also, in experiment [2] (TNF-β at varying concentrations plus TBP, FIG. 4), the “TNF-β induced estradiol production” value is on record as “completely blocked”.

B2: IFN-γ: interferon gamma, added at 0.1 μg/ml to adipocyte culture medium (protein, UniProt P01579 24-161, looked up)
Interferon gamma: QDPYVKEAENLKKYFNAGHSDVADNGTLFLGILKNWKEESDRKIMQSQIVSFYFKLFKNFKDDQSIQKSVETIKEDMNVKFFNSNKKKRDDFEKLTNYSVTDLNVQRKAIHELIQVMAELSPAAKTGKRKRSQMLFRG
With B2, the “transcription of aromatase mRNA induced by IL-1β” value in experiment [1] (given together with IL-1β, FIG. 2) was “inhibits”. The “transcription of aromatase mRNA induced by TNFα” value in experiment [1] (given together with TNFα, FIG. 2) is recorded as “inhibits”. In addition, the “expression of aromatase mRNA in human adipocytes” value in experiment [1] is reported as “inhibits”. Moreover, the “TNF-α induced estradiol production” value in experiment [2] (0.1 μg/ml IFN-γ, increasing concentrations of TNF-α, FIG. 1) is reported as “inhibits”. Besides, in experiment [2] (0.1 μg/ml IFN-γ, increasing concentrations of TNF-β, FIG. 1), the “TNF-β induced estradiol production” value was “inhibits”. Moreover, the estradiol production result in experiment [2] (IFN-γ alone, FIG. 3) is “blocked completely”.

B3: TNF-β: tumor necrosis factor beta (protein, UniProt P01374 35-205, looked up)
Lymphotoxin-alpha: LPGVGLTPSAAQTARQHPKMHLAHSTLKPAAHLIGDPSKQNSLLWRANTDRAFLQDGFSLSNNSLLVPTSGIYFVYSQVVFSGKAYSPKATSSPLYLAHEVQLFSSQYPFHVPLLSSQKMVYPGLQEPWLHSMYHGAAFQLTQGDQLSTHTDGIPHLVLSPSTVFFGAFAL
As to B3, the estradiol amount result in experiment [2] (FIG. 1) was “significantly increased”.

For the origin of these results see patent US20050002900A1, “Method of treating estrogen responsive breast cancer” (priority 2001, published 2005).
